Test results: patent US20230399393A1, “METHODS TO EXTEND HEALTH-SPAN AND TREAT AGE-RELATED DISEASES” (National University of Singapore, priority 2020, published 2023)

Tests used:
C57Bl/6J mice [1] = assay: Mouse Frailty Index in aged mice treated from 55 to 110 weeks of age; type: in vivo; conditions: mice aged 110 weeks; 40 mg/kg IP every 3 weeks from age 55 weeks; vs isotype control IgG
Experimental: C57Bl/6J mice aged 46 weeks were obtained from the Jackson Laboratory, and randomised on a 1:1 basis to receive either X203 or an isotype control IgG antibody.
From age 55 weeks (human equivalent of ˜45 years old (i.e. middle age)) to age 110 weeks (human equivalent of ˜75 years old), mice were administered with 40 mg/kg of either X203 or isotype-matched control IgG via intra-peritoneal injection every 3 weeks.
At age 110 weeks, frailty was assessed using the Mouse Frailty Index described in Rizzo et al. Curr Protoc Mouse Biol. (2018) 8(2):e45, which is hereby incorporated by reference in its entirety. In this protocol, mice are individually observed and evaluated for the absence or presence and severity of 27 different characteristics each scored as 0, 0.5, or 1 based on level of severity. A frailty index score is calculated as the cumulative score of all measures. As a separate measurement of frailty, core body temperature was recorded, as core body temperature is known to decrease with increasing frailty in mice (Reynolds et al., Mechanisms of Ageing and Development (1985) 30(2):143-52). Data were analysed by 2-way ANOVA.
End-point frailty scoring was performed 2 days prior to sacrifice using the accepted frailty scoring system (Sukoff Rizzo et al. 2018, Current Protocols in Mouse Biology 8 (2): e45.)

[2] = tested on: Primary human hepatocytes; assay: Hepatocytes stimulated with IL-11, BSA or palmitate with X203, X209 or IgG, western blot; type: cell-based; conditions: 24 hours; antibody 2 μg/ml; IL11 10 ng/ml or palmitate 0.5 mM
Experimental: FIG. 20. Western blot image showing the levels of p-ERK, ERK, p-P90RSK, P90RSK, p-LKB1, LKB1, p-AMPK, AMPK, p-Acetyl-CoA Carboxylase (p-ACC), Acetyl-CoA Carboxylase (ACC), p-mTOR, mTOR, p-p70S6K, p70S6K, p-S6RP, S6RP in primary human hepatocytes that are unstimulated (BL) or stimulated for 24 hours with either IL11, 0.5% BSA, or palmitate (saturated fatty acid) in the presence of X203, X209, or IgG (11E10) isotype control. IL11 (10 ng/ml), IgG/X203/X209 (2 μg/ml), palmitate (0.5 mM) conjugated in free BSA (0.5% BSA solution) in the ratio of 6:1.
Primary human hepatocytes (stimulated with IL-11, BSA or palmitate, or unstimulated) were treated with X203 (anti-IL-11 antagonist antibody) and X209 (anti-IL-11Rα antagonist antibody). […] Treatment with X203 or X209 essentially reverses the effect of palmitate stimulation on these markers to the levels observed in the unstimulated control.

C57Bl/6J mice [3] = assay: Renal function: blood urea nitrogen (BUN) and creatinine; type: in vivo, mouse
Experimental: C57Bl/6J mice are randomised to receive either X203 or IgG control antibody at a dose of 40 mg/kg via IP injection every 3 weeks from age 55 weeks to age 110 weeks, and renal function was evaluated by analysis of serum levels of blood urea nitrogen (BUN) and creatinine using the Urea Assay Kit (ab83362, Abcam) and Creatinine Assay Kit (ab65340, Abcam) in accordance with the manufacturer's instructions.
Levels of BUN and serum creatinine was also analysed in 12 week-old male and female C57Bl/6J mice, in order to determine baseline levels. Data were analysed by 2-way ANOVA.

C57Bl/6J mice [4] = assay: Analysis of organ fibrosis (hydroxyproline assay, Masson's trichrome); type: in vivo, mouse; conditions: at 110 weeks; heart, lung, kidney, skeletal muscle; vs IgG control antibody
Experimental: C57Bl/6J mice are randomised to receive either X203 or IgG control antibody at a dose of 40m/kg via IP injection every 3 weeks from age 55 weeks to age 110 weeks.
At 110 weeks, global tissue collagen content is evaluated in the heart, lung, kidney and skeletal muscle tissues by hydroxyproline assay. Tissue sections from these tissues are also subjected to Masson's trichrome staining and analysed by light microscopy (blinded to treatment group).

B1: X203: mouse anti-mouse IL-11 IgG antagonist antibody; VH SEQ ID NO:22, VL SEQ ID NO:23 (antibody, V domains shown)
VH: EVQLQQSGPELVKPGASVKIPCKASGYTFTDYNMDWVKQSHGKSLEWIGDINPHNGGPIYNQKFTGKATLTVDKSSSTAYMELRSLTSEDTAVYYCARGELGHWYFDVWGTGTTVTVSS
VL: DIVLTQSPASLAVSLGQRATISCRASKSVSTSGYSYIHWYQQKPGQPPKLLIYLASNLDSGVPARFSGSGSGTDFTLNIHPVEEEDAATYYCQHSRDLPPTFGGGTKLEIK
With B1 as the molecule, how does the frailty index (C57Bl/6J mice [1]) read?
Its frailty index is “significant reduction”.

What about the “levels of p-AMPK and p-ACC” value [2] of the same molecule?
The value was “increase”.

What about the “levels of phosphorylated markers p-ERK, p-p90RSK, p-LKB1, p-mTOR, p-p70S6K and p-S6RP” value [2] of the same molecule?
Its value is “reduces”.

And the “reduction in creatinine levels relative to IgG control” value (C57Bl/6J mice [3]; female mice, baseline 12 week old female 0.77 mg/dl)?
Its value is 43%.

What about the “reduction in BUN levels relative to IgG control” value (C57Bl/6J mice [3]; female mice, baseline mean BUN of 12 week old female mice 31.8 mg/dl) of the same molecule?
The value was 42%.

What about the “reduction in creatinine levels relative to IgG control” value (C57Bl/6J mice [3]; male mice, baseline 12 week old male 0.92 mg/dl) of the same molecule?
The value was 60%.

And the “reduction in BUN levels relative to IgG control” value (C57Bl/6J mice [3]; male mice, baseline mean BUN of 12 week old male mice 51.3 mg/dl)?
Its value is 79%.

What about the renal function (C57Bl/6J mice [3]; vs IgG control antibody) of the same molecule?
Its renal function is “improved”.

And the “fibrosis in the tissues analysed” value (C57Bl/6J mice [4])?
Its value is “less”.
